Consider one molecule from paper PMC5507294 (PLoS ONE, 2017).

The target in test [1] is T1, PR55α, the α isoform of the 55 kDa B-type regulatory subunit of PP2A (human (endogenous in HECs), UniProt P63151 1-447).
T1 construct: PR55α, α isoform of the 55 kDa B-type regulatory subunit of protein phosphatase 2A, endogenous in primary human ectocervical cells (HECs); also called PP2A regulatory subunit; source: endogenous, lysate of primary human ectocervical cells (HECs) in RIPA buffer
T1 sequence (looked up): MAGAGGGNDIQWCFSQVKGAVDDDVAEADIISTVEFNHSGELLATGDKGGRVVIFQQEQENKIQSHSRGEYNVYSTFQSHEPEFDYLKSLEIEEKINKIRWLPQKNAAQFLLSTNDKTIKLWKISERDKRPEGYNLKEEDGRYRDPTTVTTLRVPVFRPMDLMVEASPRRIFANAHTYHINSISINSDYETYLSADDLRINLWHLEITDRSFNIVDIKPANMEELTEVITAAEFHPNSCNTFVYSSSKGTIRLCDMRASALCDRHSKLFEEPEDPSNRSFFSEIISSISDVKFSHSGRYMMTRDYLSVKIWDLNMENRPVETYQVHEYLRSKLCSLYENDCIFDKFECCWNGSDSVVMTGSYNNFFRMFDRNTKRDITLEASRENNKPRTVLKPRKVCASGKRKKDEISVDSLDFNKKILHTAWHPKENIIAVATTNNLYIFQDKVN
In words: co-IP; GSK-3β, PR55α or PP2Ac immunoprecipitated (antibody with protein A or protein G agarose, 90 min at 4°C) from RIPA lysates of HECs with equal amounts of protein; immunoblot for β-catenin; cells 3 d in KGM or in CR culture (F+Y+J2). The conditions noted are these: partners not purified.

Test [2] has as its target T2, PP2A catalytic subunit (PP2Ac) (human (endogenous in HECs), UniProt P67775 1-309).
T2 construct: catalytic (C) subunit of protein phosphatase 2A, endogenous in primary human ectocervical cells (HECs); also called PP2A C subunit; source: endogenous, lysate of primary human ectocervical cells (HECs) in RIPA buffer
Described as above. The conditions noted are these: partners not purified.

T2 sequence (P67775 whole entry): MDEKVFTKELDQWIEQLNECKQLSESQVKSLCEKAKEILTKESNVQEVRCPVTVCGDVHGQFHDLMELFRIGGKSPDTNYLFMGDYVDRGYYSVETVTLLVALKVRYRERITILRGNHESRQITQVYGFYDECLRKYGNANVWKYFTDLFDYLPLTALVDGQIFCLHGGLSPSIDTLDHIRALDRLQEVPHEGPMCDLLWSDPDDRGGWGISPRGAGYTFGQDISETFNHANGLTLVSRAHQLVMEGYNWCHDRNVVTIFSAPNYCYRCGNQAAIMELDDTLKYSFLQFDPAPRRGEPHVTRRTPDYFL

B1: β-catenin (natural protein, human (endogenous in HECs), UniProt P35222 1-781, looked up)
chain: MATQADLMELDMAMEPDRKAAVSHWQQQSYLDSGIHSGATTTAPSLSGKGNPEEEDVDTSQVLYEWEQGFSQSFTQEQVADIDGQYAMTRAQRVRAAMFPETLDEGMQIPSTQFDAAHPTNVQRLAEPSQMLKHAVVNLINYQDDAELATRAIPELTKLLNDEDQVVVNKAAVMVHQLSKKEASRHAIMRSPQMVSAIVRTMQNTNDVETARCTAGTLHNLSHHREGLLAIFKSGGIPALVKMLGSPVDSVLFYAITTLHNLLLHQEGAKMAVRLAGGLQKMVALLNKTNVKFLAITTDCLQILAYGNQESKLIILASGGPQALVNIMRTYTYEKLLWTTSRVLKVLSVCSSNKPAIVEAGGMQALGLHLTDPSQRLVQNCLWTLRNLSDAATKQEGMEGLLGTLVQLLGSDDINVVTCAAGILSNLTCNNYKNKMMVCQVGGIEALVRTVLRAGDREDITEPAICALRHLTSRHQEAEMAQNAVRLHYGLPVVVKLLHPPSHWPLIKATVGLIRNLALCPANHAPLREQGAIPRLVQLLVRAHQDTQRRTSMGGTQQQFVEGVRMEEIVEGCTGALHILARDVHNRIVIRGLNTIPLFVQLLYSPIENIQRVAAGVLCELAQDKEAAEAIEAEGATAPLTELLHSRNEGVATYAAAVLFRMSEDKPQDYKKRLSVELTSSLFRTEPMAWNETADLGLDIGAQGEPLGYRQDDPSYRSFHSGGYGQDALGMDPMMEHEMGGHHPGADYPVDGLPDLGHAQDLMDGLPPGDSNQLAWFDTDL
notes: β-catenin, endogenous in primary human ectocervical cells (HECs); Endogenous protein; its phosphorylation state in the co-precipitate was not determined; source: endogenous, lysate of primary human ectocervical cells (HECs) in RIPA buffer
Consider B1, for which the “fold more co-precipitated in CR cells than in KGM” value in test [1] worked out at 25 fold; in test [2], 3.8 fold.
